The values below come from patent US20160045487A1, “COMPOSITIONS AND METHODS FOR TREATING NEUROPATHY” (CHILDEREN'S MEDICAL CENTER CORPORATION, priority 2013, published 2016).

Test [1] has as its system GFRα/RET receptor signaling. The test can be described thus: Tyrosine hydroxylase promoter luciferase reporter assay in SH-SY5Y-THpGL3 cells. It counts as cell-based, human. Conditions: for maximal effect, luciferase activity: 18 nM ligand alone; for minimal ligand dose necessary to induce luciferase activity above control / luciferase activity versus ligand concentration: ligand alone; for minimal ligand dose necessary to induce luciferase activity above control: 10 minutes, washout, overnight; for luciferase activity versus ligand concentration: luciferase measured 18 hours later. From the text:
(§1) One goal of these studies was to determine if XIB4035 could be used for treating SFN in humans. Using the Neuro2A (N2A) murine neuroblastoma cell line, Tokugawa et al. (supra) reported XIB4035 as a competitive agonist for the GDNF receptor GFRα1 that activates the RET receptor. Since populations of DRG sensory neurons express different GFRα receptors, thus making them preferentially responsive to the particular ligands, it was important to determine if XIB4035 was specific to GFRα1 or could act on other family members. Since PSPN has no effect on peripheral sensory neurons, the GFRα1, GFRα2, and GFRα3 receptors were the focus of these studies. The SH-SY5Y, a human neuroblastoma cell line expressing mRNA for GFRα1, GFRα2, and GFRα3, was used to perform two cell-based assays; immunoblots measuring RET phosphorylation and a luciferase reporter assay using the tyrosine hydroxylase (TH) promoter. For the latter two paradigms were used, either overnight treatment immediately followed by luciferase activity measurements or 10 minute treatments followed by washout and overnight incubation prior to measurements. GDNF and ARTN induced robust TH-luciferase activity in a dose dependent manner (FIG. 3E). Because the responses to GDNF and ARTN were more robust, these two factors were chosen for further analysis.
The tyrosine hydroxylase promoter was cloned into the pGL3 basic vector (Promega, Madison, Wis., USA) at the Mlu I and Hind III sites, as previously described (Zwick, supra) (TH-pGL3). Briefly, a 2 Kb promoter region upstream from the transcription initiation site of the rat TH gene was cloned from genomic DNA using the primer sequences, […] and […]. SH-SY5Y cells were co-transfected with the TH-pGL3 and the pBabe-puromycin expression vectors at a molar ratio of 10:1. Cells were selected for stable puromycin resistance at a final concentration of 0.5 μg/ml of puromycin-dihydrochloride. Stable colonies were selected and tested for TH-directed luciferase response to GDNF family ligand stimulation. One stable clone, SH-SY5Y-THpGL3, with good signal-to-noise ratio was selected for use in the experiments.
SH-SY5Y-THpGL3 cells were maintained in DMEM/F12, 5% FBS, and 1% penicillin/streptomycin and plated on collagen coated plates (4 μg/ml). Neuro-2A cells were grown in MEM, 5% FBS, and 1% penicillin/streptomycin. BE(2)-C cells were grown in DMEM/F12 media containing 5% FBS and 1% penicillin/streptomycin. PC-12 cells were maintained in media containing RPMI-1640, 10% horse serum, 5% FBS, and 1% penicillin/streptomycin on collagen coated plates. For luciferase assays, cells were treated for either 10 minutes with washout or overnight with various molecules and assayed for firefly luciferase 16-24 hours post-treatment using the luciferase assay system (Promega, Madison, Wis., USA).
On the technique in general: In a reporter assay the amount or activity of a reporter protein is the signal.

The next test addresses T1, GFRα3/RET (UniProt O60609+P35546).
T1 construct: N2A cells (which express RET) transfected with GFRα1 or GFRα3 expression constructs; expressed in transfected cells; host or cells: Neuro2A (N2A) cells; GFRα3 plasmid was a gift from Dr. Milbrandt; RET is endogenous
The test can be described thus: RET phosphorylation in N2A cells transfected with GFRα3. The class given is cell-based, human GFRα3 in murine N2A cells. Conditions: 1 nM ARTN. The method, then: (§2) Since the original report argued that XIB4035 displaces GDNF binding to GFRα1 expressing cells (FIG. 2 in Tokugawa et al., Neurochem Int 42, 81-86 (2003).), potentially ARTN, on TH-luciferase activity and Ret phosphorylation. […] In this experiment, cells were treated with GDNF or ARTN with or without XIB4035 for 10 minutes and cell lysates were either collected immediately or treatment was washed out and replaced with growth media for 30, 60, or 120 minutes. […] Therefore, we tested cells expressing only one GFRα using either N2A cells (which express RET) transfected with GFRα1 or GFRα3 expression constructs, or B(E)2-C cells, which express only GFRα2 together with RET. […] The GFRα1 or GFRα3 transfected N2A cells were then treated with XIB4035 alone, the appropriate ligand for the expressed receptor alone, or XIB4035 and ligand in combination for 10 minutes, and collected lysates immediately after treatment or 60 minutes after washout. […] Similar results were obtained with GFRα2 and NRTN using B(E)2-C cells (FIG. 8). Thus, XIB4035 is a positive modulator of signaling by GDNF family ligands and their receptors, not an agonist for GFRα1 as previously reported.
(§3) For phosphorylated Ret immunoblot experiments, cells were treated with various combinations of molecules for 10 minutes and either collected immediately or had treatment washed out and returned to control treatment media for the times indicated prior to cell collection. Lysates were collected in buffer containing: 50 mM Tris-HCL, 1% TX-100, 0.25% Deoxycholic acid, 150 mM sodium chloride, 1 mM EDTA, 0.1 mM sodium fluoride, 0.1 mM sodium pyrophosphate, 0.02 mM sodium orthovanadate, and protease inhibitors Immunoblots were blocked in 5% bovine serum albumin in tris-buffered saline+0.2% Tween 20+0.1 mM sodium fluoride, 0.1 mM sodium pyrophosphate, and 0.02 mM sodium orthovanadate and probed in blocking solution using anti-phospotyrosine (4G10) mouse monoclonal antibody (1:2000; EMD Milipore Corp., Billerica, Mass.). […]

Test [2] concerns the target T2, RET (Mus musculus, UniProt P35546).
T2 construct: endogenous in cells
Nature of the test: RET phosphorylation in control transfected (mGFP) N2A cells. The class given is cell-based, murine. Conditions: 2 nM GDNF or 1 nM ARTN. The method, then:
as §2, with “reported. […]” for “reported.”

The next test has as its target T3, GFRα2/RET (Homo sapiens, UniProt O00451+P07949).
T3 construct: B(E)2-C cells, which express only GFRα2 together with RET; endogenous in cells; host or cells: B(E)2-C / BE(2)-C cells
The test can be described thus: NRTN/GFRα2-induced RET phosphorylation in B(E)2-C cells. Conditions: 2 nM NRTN alone, 10 minutes, then 60 minutes growth medium. The class given is cell-based. On the procedure: B(E)2-C cells, which express GFRα2, were treated under different conditions (no treatment, 2 nM NRTN, or 2 nM NRTN with 20 μM XIB4035) for 10 minutes. Cells were either lysed immediately or after incubation in growth medium for an additional 60 minutes.
as §2, with “Thus, XIB4035 is a positive modulator of signaling by GDNF family ligands and their receptors, not an agonist for GFRα1 as previously reported.” left out

The target in test [3] is T4, RET (Homo sapiens, UniProt P07949+P56159).
T4 construct: endogenous in cells; host or cells: SH-SY5Y (SH-SY5Y-THpGL3) human neuroblastoma cells
Nature of the test: RET phosphorylation phospho-tyrosine Western blot in SH-SY5Y cells. It counts as cell-based. The conditions noted are these: 2 nM GDNF, two or 10 minutes.
From the text: as §1
Since the original report argued that XIB4035 displaces GDNF binding to GFRα1 expressing cells (FIG. 2 in Tokugawa et al., Neurochem Int 42, 81-86 (2003).), potentially ARTN, on TH-luciferase activity and Ret phosphorylation. […] In this experiment, cells were treated with GDNF or ARTN with or without XIB4035 for 10 minutes and cell lysates were either collected immediately or treatment was washed out and replaced with growth media for 30, 60, or 120 minutes. […] Therefore, we tested cells expressing only one GFRα using either N2A cells (which express RET) transfected with GFRα1 or GFRα3 expression constructs, or B(E)2-C cells, which express only GFRα2 together with RET. […]

The next test addresses T5, GFRα1/RET (UniProt P35546+Q62997).
T5 construct: N2A cells (which express RET) transfected with GFRα1 or GFRα3 expression constructs; expressed in transfected cells; host or cells: Neuro2A (N2A) cells; GFRα1 plasmid was a gift from Dr. Milbrandt; RET is endogenous
Nature of the test: RET phosphorylation in N2A cells transfected with GFRα1. The class given is cell-based, rat GFRα1 in murine N2A cells. Conditions: 2 nM GDNF. On the procedure: as §2, §3

T2 sequence (P35546 29-1115): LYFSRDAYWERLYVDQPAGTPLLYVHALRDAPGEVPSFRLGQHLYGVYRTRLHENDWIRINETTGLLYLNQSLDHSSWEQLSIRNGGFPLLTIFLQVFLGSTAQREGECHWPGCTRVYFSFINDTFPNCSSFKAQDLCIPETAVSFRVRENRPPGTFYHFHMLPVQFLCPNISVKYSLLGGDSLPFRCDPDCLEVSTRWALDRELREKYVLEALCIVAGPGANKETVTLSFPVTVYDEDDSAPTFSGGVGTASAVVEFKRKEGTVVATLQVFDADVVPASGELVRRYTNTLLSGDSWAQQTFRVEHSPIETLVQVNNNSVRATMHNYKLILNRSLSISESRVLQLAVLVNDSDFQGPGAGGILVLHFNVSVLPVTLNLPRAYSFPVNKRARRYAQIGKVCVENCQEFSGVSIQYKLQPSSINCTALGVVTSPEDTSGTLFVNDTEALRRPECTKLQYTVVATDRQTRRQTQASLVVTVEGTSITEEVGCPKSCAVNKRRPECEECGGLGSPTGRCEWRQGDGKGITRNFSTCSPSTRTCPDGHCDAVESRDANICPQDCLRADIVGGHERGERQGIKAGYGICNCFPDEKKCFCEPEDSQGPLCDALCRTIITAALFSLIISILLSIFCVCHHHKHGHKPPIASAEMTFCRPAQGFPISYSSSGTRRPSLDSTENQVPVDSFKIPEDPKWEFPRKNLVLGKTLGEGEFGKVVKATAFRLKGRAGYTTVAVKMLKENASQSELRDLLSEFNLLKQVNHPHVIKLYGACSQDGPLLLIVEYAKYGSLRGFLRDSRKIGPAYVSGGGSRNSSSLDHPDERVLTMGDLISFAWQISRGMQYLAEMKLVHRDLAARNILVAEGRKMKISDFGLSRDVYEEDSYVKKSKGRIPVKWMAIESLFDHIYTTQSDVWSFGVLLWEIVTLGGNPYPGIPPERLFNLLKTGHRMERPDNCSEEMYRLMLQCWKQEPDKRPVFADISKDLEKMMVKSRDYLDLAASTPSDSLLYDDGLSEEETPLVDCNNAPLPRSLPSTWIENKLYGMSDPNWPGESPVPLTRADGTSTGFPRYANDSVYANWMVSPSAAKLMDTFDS
T3 sequence (O00451 22-444 limits assumed): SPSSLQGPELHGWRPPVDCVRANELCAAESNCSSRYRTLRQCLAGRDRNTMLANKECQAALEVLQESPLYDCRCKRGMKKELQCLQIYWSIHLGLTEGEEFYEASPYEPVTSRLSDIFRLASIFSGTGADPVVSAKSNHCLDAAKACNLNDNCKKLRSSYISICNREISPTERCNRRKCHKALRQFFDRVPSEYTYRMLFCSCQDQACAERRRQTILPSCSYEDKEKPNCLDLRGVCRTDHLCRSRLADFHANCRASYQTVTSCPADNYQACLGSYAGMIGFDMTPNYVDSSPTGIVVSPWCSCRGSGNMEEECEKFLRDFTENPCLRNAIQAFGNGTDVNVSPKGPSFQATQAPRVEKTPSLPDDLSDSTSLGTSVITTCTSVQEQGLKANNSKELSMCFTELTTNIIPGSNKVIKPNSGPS
T3 sequence (P07949 29-1114): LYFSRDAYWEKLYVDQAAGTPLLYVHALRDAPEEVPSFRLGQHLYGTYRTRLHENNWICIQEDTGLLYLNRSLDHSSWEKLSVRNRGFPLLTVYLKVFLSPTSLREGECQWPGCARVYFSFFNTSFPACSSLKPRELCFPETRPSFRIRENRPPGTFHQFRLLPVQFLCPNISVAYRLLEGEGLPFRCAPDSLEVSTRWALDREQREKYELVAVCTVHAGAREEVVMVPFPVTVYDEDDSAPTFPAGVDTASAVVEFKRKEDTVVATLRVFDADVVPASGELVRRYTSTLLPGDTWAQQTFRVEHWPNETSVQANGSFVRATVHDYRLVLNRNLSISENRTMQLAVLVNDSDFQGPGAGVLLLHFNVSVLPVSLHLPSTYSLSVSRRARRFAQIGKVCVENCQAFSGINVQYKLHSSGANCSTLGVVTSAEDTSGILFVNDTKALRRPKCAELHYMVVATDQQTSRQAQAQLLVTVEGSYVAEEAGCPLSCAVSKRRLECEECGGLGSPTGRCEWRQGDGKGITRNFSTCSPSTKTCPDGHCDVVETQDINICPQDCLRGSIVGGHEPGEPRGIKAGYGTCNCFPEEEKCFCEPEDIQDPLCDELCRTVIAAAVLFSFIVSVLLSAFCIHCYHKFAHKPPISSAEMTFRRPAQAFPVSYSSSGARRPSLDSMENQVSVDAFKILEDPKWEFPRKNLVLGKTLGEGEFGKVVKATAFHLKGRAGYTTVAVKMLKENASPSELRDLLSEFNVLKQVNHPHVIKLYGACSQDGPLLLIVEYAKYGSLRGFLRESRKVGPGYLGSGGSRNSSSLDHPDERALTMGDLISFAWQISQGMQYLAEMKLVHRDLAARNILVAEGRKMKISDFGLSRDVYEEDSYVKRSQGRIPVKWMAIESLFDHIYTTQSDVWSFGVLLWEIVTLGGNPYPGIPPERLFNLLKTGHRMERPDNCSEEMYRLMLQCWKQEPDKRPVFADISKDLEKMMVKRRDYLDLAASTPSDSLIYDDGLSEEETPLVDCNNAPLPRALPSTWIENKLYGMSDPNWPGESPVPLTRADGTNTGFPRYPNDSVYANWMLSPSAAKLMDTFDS
T4 sequence (P07949 29-1114): as above
T4 sequence (P56159 25-429 limits assumed): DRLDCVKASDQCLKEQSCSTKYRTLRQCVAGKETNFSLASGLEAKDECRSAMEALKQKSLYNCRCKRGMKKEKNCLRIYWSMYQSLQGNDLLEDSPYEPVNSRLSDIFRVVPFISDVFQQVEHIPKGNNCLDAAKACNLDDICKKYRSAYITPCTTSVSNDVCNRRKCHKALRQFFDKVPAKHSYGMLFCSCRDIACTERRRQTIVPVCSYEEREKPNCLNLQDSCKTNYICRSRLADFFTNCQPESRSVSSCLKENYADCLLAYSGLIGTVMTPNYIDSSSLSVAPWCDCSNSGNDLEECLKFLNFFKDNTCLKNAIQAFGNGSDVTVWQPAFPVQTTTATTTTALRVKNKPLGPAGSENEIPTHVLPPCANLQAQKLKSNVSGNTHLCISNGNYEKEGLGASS
T5 sequence (Q62997 25-430 limits assumed): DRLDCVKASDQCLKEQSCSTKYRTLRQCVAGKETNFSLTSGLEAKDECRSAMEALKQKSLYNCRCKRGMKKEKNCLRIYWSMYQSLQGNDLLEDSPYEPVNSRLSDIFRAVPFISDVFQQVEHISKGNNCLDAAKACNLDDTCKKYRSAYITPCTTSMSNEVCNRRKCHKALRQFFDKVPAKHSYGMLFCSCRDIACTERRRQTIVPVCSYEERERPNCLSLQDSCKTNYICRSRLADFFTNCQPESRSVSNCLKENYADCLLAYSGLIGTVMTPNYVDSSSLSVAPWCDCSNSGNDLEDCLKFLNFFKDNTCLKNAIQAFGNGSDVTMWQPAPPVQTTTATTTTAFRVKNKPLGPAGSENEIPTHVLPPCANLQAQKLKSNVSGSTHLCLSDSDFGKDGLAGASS
T5 sequence (P35546 29-1115): as the sequence (P35546 29-1115) above
T1 sequence (O60609 32-374 limits assumed): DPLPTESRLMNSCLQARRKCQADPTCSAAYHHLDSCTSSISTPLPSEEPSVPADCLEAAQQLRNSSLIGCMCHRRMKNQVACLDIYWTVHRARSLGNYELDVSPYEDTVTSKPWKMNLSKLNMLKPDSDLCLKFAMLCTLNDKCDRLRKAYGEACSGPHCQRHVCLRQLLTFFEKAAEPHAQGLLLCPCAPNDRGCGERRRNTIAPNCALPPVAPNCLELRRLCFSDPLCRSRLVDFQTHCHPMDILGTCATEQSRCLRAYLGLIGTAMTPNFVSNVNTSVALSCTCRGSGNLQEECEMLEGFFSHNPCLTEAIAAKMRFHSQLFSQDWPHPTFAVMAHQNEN
T1 sequence (P35546 29-1115): as the sequence (P35546 29-1115) above

For the molecule “ARTN: artemin, GDNF family ligand of GFRα3; purchased from Peprotech”, in test [1], the “maximal effect, luciferase activity” value amounted to 2.78±0.44 fold over control; the “minimal ligand dose necessary to induce luciferase activity above control” value came out at 75 pM; the “luciferase activity versus ligand concentration” value was “dose-dependent increase”. Moreover, in the test with GFRα3/RET, the RET phosphorylation result is on record as “induced RET phosphorylation”. For the same molecule, the RET phosphorylation entry in the test with RET [2] is reported as “No RET phosphorylation was detected”.

B1: NRTN: neuturin, GDNF family ligand of GFRα2; purchased from Peprotech (protein, UniProt Q99748 96-197, looked up)
Neurturin: ARLGARPCGLRELEVRVSELGLGYASDETVLFRYCAGACEAAARVYDLGLRRLRQRRRLRRERVRAQPCCRPTAYEDEVSFLDAHSRYHTVHELSARECACV
Turning to B1, in test [1], the “luciferase activity versus ligand concentration” value is recorded as “dose-dependent increase”. Besides, the “RET phosphorylation at 60 min” value in the test with GFRα2/RET is “not detectable”.

B2: GDNF: Glial cell line-derived neurotrophic factor, GFRα1 ligand; purchased from Peprotech (protein, UniProt P39905 78-211, looked up)
Glial cell line-derived …: SPDKQMAVLPRRERNRQAAAANPENSRGKGRRGQRGKNRGCVLTAIHLNVTDLGLGYETKEELIFRYCSGSCDAAETTYDKILKNLSRNRRLVSDKVGQACCRPIAFDDDLSFLDDNLVYHILRKHSAKRCGCI
B2: in test [1] (2 nM GDNF, 10 minutes then overnight in regular medium, or overnight), the “TH promoter activity (luciferase)” value is listed as “increases TH promoter activity”. In test [1], the “maximal effect, luciferase activity” value was determined as 2.76±0.32 fold over control; the “minimal ligand dose necessary to induce luciferase activity above control” value came out at 75 pM; the “luciferase activity versus ligand concentration” value is given as “dose-dependent increase”. In the test with RET [3], the RET phosphorylation entry is on record as “induced”. Also, the RET phosphorylation result with RET [2] is given as “No RET phosphorylation was detected”. For the same molecule, the RET phosphorylation entry with GFRα1/RET is recorded as “induced RET phosphorylation”.
